# From PMC8164019 (Methods in molecular biology (Clifton, N.J.), 2020)
# B1: MxB after cleavage of the MBP tag by HRV-3C protease (natural protein, human, UniProt P20592 1-715, looked up)
# chain: MSKAHKPWPYRRRSQFSSRKYLKKEMNSFQQQPPPFGTVPPQMMFPPNWQGAEKDAAFLAKDFNFLTLNNQPPPGNRSQPRAMGPENNLYSQYEQKVRPCIDLIDSLRALGVEQDLALPAIAVIGDQSSGKSSVLEALSGVALPRGSGIVTRCPLVLKLKKQPCEAWAGRISYRNTELELQDPGQVEKEIHKAQNVMAGNGRGISHELISLEITSPEVPDLTIIDLPGITRVAVDNQPRDIGLQIKALIKKYIQRQQTINLVVVPCNVDIATTEALSMAHEVDPEGDRTIGILTKPDLMDRGTEKSVMNVVRNLTYPLKKGYMIVKCRGQQEITNRLSLAEATKKEITFFQTHPYFRVLLEEGSATVPRLAERLTTELIMHIQKSLPLLEGQIRESHQKATEELRRCGADIPSQEADKMFFLIEKIKMFNQDIEKLVEGEEVVRENETRLYNKIREDFKNWVGILATNTQKVKNIIHEEVEKYEKQYRGKELLGFVNYKTFEIIVHQYIQQLVEPALSMLQKAMEIIQQAFINVAKKHFGEFFNLNQTVQSTIEDIKVKHTAKAENMIQLQFRMEQMVFCQDQIYSVVLKKVREEIFNPLGTPSQNMKLNSHFPSNESSVSSFTEIGIHLNAYFLETSKRLANQIPFIIQYFMLRENGDSLQKAMMQILQEKNRYSWLLQEQSETATKRRILKERIYRLTQARHALCQFSSKEIH
# Target: the molecule itself
# Assay: negative-stain EM
protein,measurement,value
B1,binding result,binds
